Changes are numbered by the printed parent chain. “Also recorded” adds a separate entry of the source.
B1: DHFR-F56: fusion protein composed of peptide F56 and dihydrofolate reductase, expressed in E. coli M15 (protein)
chain: MVRPLNCIVAVSQNMGIGKNGDLPWPPLRNEFKYFQRMTTTSSVEGKQNLVIMGRKTWFSIPEKNRPLKDRINIVLSRELKEPPRGAHFLAKSLDDALRLIEQPELASKVDMVWIVGGSSVYQEAMNQPGHLRLFVTRIMQEFESDTFFPEIDLGKYKLLPEYPGVLSEVQEEKGIKYKFEVYEKKWHSDMEWWYLLG
B2: DHFR-F90: fusion protein composed of peptide F90 and dihydrofolate reductase, expressed in E. coli M15 (protein)
chain: B1 chain with S189D, D190P, M191T, E192P, Y195S, L196W, L197E, G198I
B3: dihydrofolate reductase (protein)
chain: MVRPLNCIVAVSQNMGIGKNGDLPWPPLRNEFKYFQRMTTTSSVEGKQNLVIMGRKTWFSIPEKNRPLKDRINIVLSRELKEPPRGAHFLAKSLDDALRLIEQPELASKVDMVWIVGGSSVYQEAMNQPGHLRLFVTRIMQEFESDTFFPEIDLGKYKLLPEYPGVLSEVQEEKGIKYKFEVYEKK
notes: dihydrofolate reductase, negative control protein

Key:
[1] = test system: chick chorioallantoic membrane blood vessels; assay: Proliferation of blood vessels on chick chorioallantoic membrane; type: in vivo
Description: In this example, a proliferation assay on chick chorioallantoic membrane blood vessels was carried out to detect the inhibition of F56 to angiogenesis.
The experiment was carried out according to a method described by Fu Shengfa et al. (Fu Shengfa, Lu Yinglin and Zhang Chaoshan: Technique of detecting the effects of vascular growth factor with chorioallantoic membrane of fertilized chicken eggs. Chin Mili. Acad. Medi. Scie. 1993, 17:294-97”). Particularly, fresh inseminated chicken eggs were soaked in 0.1% benzalkonium bromide solution for 2 minutes at 38° C., and incubated in an incubator at 37.5° C., 60-70% humidity for 3 days. Then, the eggs were stripped and cultured on a petri dish. When the allantoic membrane grew to about 1cm^2, the different groups (5 chick embryos per group) were treated with the following agents. VEGF165 (2 μg/L), DHFR (negative control) or 18 μl F56 solution (0.8 μg/μl) was dropped onto a glass-fiber filter membrane (Φ5 mm). The membrane was placed on the distal end (in relation to the heart of the embryo) of the chorioallantoic membrane. The agents were administered once in the morning and once in the evening for 2 days. The results were observed and recorded by photography. The experiment was repeated twice (Kodak 100, exposed for 3 s).

[2] = test system: human umbilical cord vein-derived endothelial cells (HUVECs); assay: VEGF-stimulated proliferation of HUVECs (3H-TdR incorporation); type: cell-based; conditions: 50, 100, 200, 300 μmol/L with VEGF165, 48 hours; FIG. 2
Description: A sample of human umbilical cord (obtained from Beijing Gynecological and Obstetric Hospital) was digested by 0.1% collagenase II (purchased from GIBCO BRL Corporation), and centrifuged at 1000 rpm for 10 minutes to collect the human umbilical cord vein-derived endothelial cells (HUVECs). The cells were suspended in 20% FCS/RPMI 1640 (purchased from GIBCO BRL Corporation), and transferred to a plastic culture flask and cultured in a incubator (37° C., 5% CO2) for 2 days. Then, the cultured HUVECs were digested with 0.04% trypsin-EDTA, and inoculated into a 24-well plate at 3×10^4 cells/well. After 24 hours' incubation, the cells were incubated for another 24 hours in new medium 2% FCS/RPIM 1640. VEGF165 (product of Sigma Corporation) was added either independently or as a mixture with peptide F56 or F90 of different concentrations (50, 100, 200, 300 μmol/L). 4 parallel wells were used for each group. The cells were incubated for 48 hours. Then, ^3H-TdR(1 μci/ml) was added and the cells were incubated for another 8 hours. The cells were collected to a glass-fiber filter membrane. The cpm value was detected according to conventional methods. The same experiment was repeated for 3 times.

[3] = test system: human breast cancer cells; assay: Metastasis model of breast cancer in SCID mice; type: in vivo
Description: In order to observe the inhibitory activity of the peptides of the present invention to cancer metastasis, a metastasis model of breast cancer in SCID mice as described by Li Zhihong at al. (Transplant of human breast cancer in nude mice. Natl. Med J Chin. Vol.80 (11), 2000) was used to determine the function of F56. Briefly, human breast cancer cells were inoculated under the fat pad in the breast of SCID mice. Peptide F56 (0.5 mmol/L) was injected topically (60 μl per mouse per time) on the next day and every other day for 10 times in total. After 8 weeks, the mice were put to dead. The tumors were taken out and weighted. The whole lung was taken out, fixed and sliced with maximal cross-section and dyed by HE. The number of metastatic foci was counted.

sKDR = target: T1, sKDR (Homo sapiens, UniProt P35968); assay: ELISA test of binding specificity to soluble receptor sKDR; conditions: for reaction with KDR (in words): ELISA; for ELISA (OD492 nm), SKDR: plate coated with sKDR 5 mg/L, detection with DHFR-specific monoclonal antibody
T1 construct: made in house
Description: (§1) The specificity of the binding of the fusion proteins DHFR-F56 and DHFR-F90 to receptor Flt-1 was tested by ELISA in the present example.
(§2) Particularly, a 96-well plate was coated with soluble receptors, sFlt-1, sKDR (5 mg/L, 50 μl/well) [Song Shumei, Shou Chengchao: Molecular cloning and its expression of vascular endothelia growth factor receptor KDR. Chin J. Biochem. Mol. Bio. 1998, 14 (1): 57-61; An Ping, Dong Zhewei and Shou Chengchao: Molecular cloning and its bio-activity of soluble VEGF receptor expressed in bacterial. Chin J. Biochem. Mol. Bio. 2000, 16 (1): 62-66]. Alternatively, the vascular endothelial cells in a 96-well plate were fixed by pre-cooled 0.125% glutaraldehyde solution. DHFR, DHFR-F56 or DHFR-F90 was added to the plate after blocking. An ELISA assay was carried out using a DHFR-specific monoclonal antibody according to conventional method. The ELISA assay was repeated for 3 times.

[4] = test system: vascular endothelial cells; assay: ELISA test of binding to fixed vascular endothelial cells; conditions: for binding to endothelial cells (in words): ELISA; for ELISA (OD492 nm), EC: glutaraldehyde-fixed vascular endothelial cells, DHFR-specific monoclonal antibody
Description: as §1, §2

[5] = target: T2, soluble receptor of VEGF, Flt-1 (sFlt-1) (Homo sapiens, UniProt P17948); assay: 125I-VEGF competitive binding assay on coated sFlt-1; conditions: 1, 5, 10, 15, 20 μg/ml; 125I-VEGF 2 μg/L; FIG. 1
T2 construct: coated overnight at 4° C. by 0.5 mg/L soluble receptor of VEGF, Flt-1 (sFlt-1)
Description: In order to detect the activity of DHFR-F56 blocking VEGF binding to sFlt-1, a binding assay was carried out using ^125I-VEGF (purchased from Life Technology Inc.).
The experiment was carried out according to a method substantially as described by Tanaka, K., et al (Characterization of the extracellular domain in vascular endothelial growth factor receptor-1 (Flt-1 tyrosine kinase). Jpn J Cancer Res. 1997, 88:867-876). Briefly, a 96-well plate was coated overnight at 4° C. by 0.5 mg/L soluble receptor of VEGF, Flt-1 (sFlt-1). The coating solution was 0.01 mol/L phosphate buffer (pH 6.2). Then, the plate was rinsed with a washing solution (0.9% NaCl, 0.01 mol/L, pH6.2) for 3 times. 250 μl blocking buffer (0.3% BSA, 25 mmol/L HEPES, DMEM, pH7.6) was added into each well for 3 hours at room temperature. DHFR-F56 of different concentrations (1, 5, 10, 15, 20 μg/ml) (DHFR of different concentrations for the control group) and ^125I-VEGF (purchased from Life Technology Inc.) of fixed concentration (2 μg/L, […]) were added to the wells. 2 parallel wells were used for each concentration. The binding reaction underwent for 1 hour at room temperature. The plate was rinsed 4 times with the binding buffer. […] The cpm value was determined by a Wallac co liquid-scintillation counter after the solid residue had been dissolved.

[6] = test system: MGC803 cells (a human gastric carcinoma cell line); assay: Tumor inhibition test, MGC803 implanted in Balb/c nude mice; type: in vivo; conditions: 150 μg/100 μl intraperitoneally every other day for 10 times; for growth of human gastric carcinoma MGC803 cells in Balb/c nude mice: p<0.05 vs DHFR control
Description: To testify whether DHFR-F56 and DHFR-F90 can inhibit tumor growth on the basis of anti-angiogenesis, a tumor inhibition test on Balb/c nude mice was performed.
MGC803 cells (a human gastric carcinoma cell line) was subcutaneously implanted on the right buttock of eight 5-week aged nude mice (purchased from the Animal Center of the Chinese Academy of Medical Sciences) (2×10^6 cells/0.1 ml/each mouse). On the fifth day after the implantation, the nude mice were grouped at random into […] each of which included 4 mice. DHFR (150 μg/100 μl per time), DHFR-F56 or DHFR-F90 (150 μg/100 μl per time) was injected intraperitoneally every other day for 10 times. […] The major and minor axes of the tumors were measured by vernier caliper every three days during the observation period. The volume of the tumor was calculated according to the formula of ½×major axis×minor axis^2. After the 30 days, the nude mice were put to dead by neck-breaking. The tumors were weighted and analyzed statistically.

sFlt-1 = target: T3, sFlt-1 (Homo sapiens, UniProt P17948); assay: ELISA test of binding specificity to soluble receptor sFlt-1; conditions: for binding to Flt-1 (in words): ELISA; for ELISA (OD492 nm), SFlt-1: plate coated with sFlt-1 5 mg/L, detection with DHFR-specific monoclonal antibody
T3 construct: made in house
Description: as §1, §2

[7] = on filter membrane, twice daily for 2 days, FIG. 3
[8] = 0.5 mmol/L 60 μl topically, 10 times
[9] = lung, 0.5 mmol/L 60 μl topically, 10 times, after 8 weeks

T1 sequence (P35968 20-764 limits assumed): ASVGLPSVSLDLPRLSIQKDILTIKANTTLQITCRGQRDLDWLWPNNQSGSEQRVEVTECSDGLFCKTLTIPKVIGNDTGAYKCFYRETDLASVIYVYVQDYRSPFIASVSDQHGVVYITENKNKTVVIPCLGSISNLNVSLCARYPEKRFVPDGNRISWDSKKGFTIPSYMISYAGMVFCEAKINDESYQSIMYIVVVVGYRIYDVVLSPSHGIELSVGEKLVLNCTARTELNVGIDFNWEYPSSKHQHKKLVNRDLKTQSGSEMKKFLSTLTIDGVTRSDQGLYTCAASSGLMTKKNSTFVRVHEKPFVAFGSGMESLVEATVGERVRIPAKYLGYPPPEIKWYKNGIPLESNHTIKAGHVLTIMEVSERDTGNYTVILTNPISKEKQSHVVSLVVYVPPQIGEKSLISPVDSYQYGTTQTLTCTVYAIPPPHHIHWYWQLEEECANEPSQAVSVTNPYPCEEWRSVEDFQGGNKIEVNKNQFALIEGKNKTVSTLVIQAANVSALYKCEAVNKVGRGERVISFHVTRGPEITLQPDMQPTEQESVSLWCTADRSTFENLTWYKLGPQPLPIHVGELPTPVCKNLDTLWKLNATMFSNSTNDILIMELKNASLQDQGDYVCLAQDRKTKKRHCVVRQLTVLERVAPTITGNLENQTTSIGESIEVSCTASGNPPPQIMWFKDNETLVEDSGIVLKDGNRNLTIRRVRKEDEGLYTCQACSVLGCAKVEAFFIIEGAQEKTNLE
T3 sequence (P17948 27-758 limits assumed, species assumed): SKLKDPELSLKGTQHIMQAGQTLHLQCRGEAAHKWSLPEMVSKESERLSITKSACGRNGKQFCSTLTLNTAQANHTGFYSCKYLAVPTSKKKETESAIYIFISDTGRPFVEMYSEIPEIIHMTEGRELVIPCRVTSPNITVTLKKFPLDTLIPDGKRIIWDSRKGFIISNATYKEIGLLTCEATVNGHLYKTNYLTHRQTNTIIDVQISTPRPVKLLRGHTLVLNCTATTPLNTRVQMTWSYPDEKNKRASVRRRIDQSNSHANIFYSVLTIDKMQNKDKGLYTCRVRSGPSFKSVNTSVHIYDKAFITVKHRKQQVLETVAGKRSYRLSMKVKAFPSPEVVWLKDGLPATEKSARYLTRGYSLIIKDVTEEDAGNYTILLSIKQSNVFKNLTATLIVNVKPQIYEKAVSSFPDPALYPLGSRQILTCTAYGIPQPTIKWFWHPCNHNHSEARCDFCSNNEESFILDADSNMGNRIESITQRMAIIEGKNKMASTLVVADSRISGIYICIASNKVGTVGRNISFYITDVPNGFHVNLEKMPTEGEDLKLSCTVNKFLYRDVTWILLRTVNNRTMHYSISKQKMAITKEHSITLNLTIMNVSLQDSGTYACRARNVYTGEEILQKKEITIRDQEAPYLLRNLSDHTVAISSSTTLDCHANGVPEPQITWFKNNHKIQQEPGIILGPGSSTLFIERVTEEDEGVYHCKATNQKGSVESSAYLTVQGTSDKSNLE
T2 sequence (P17948 27-758 limits assumed, species assumed): as above

| Molecule | effect on chick chorioallantoic membrane blood vessels [1, 7] | inhibition to the proliferation of umbilical cord vein-derived endothelial cells [2] | reaction with KDR (in words) (sKDR) | ELISA (OD492 nm), SKDR (sKDR) | binding to endothelial cells (in words) [4] | ELISA (OD492 nm), EC [4] | binding of 125I-VEGF to coated sFlt-1 [5] | growth of human gastric carcinoma MGC803 cells in Balb/c nude mice [6] | binding to Flt-1 (in words) (sFlt-1) | ELISA (OD492 nm), SFlt-1 (sFlt-1) | also measured |
| --- | --- | --- | --- | --- | --- | --- | --- | --- | --- | --- | --- |
| H2N-Trp-His-Asp-Pro-Thr-Pro-Trp-Trp-Ser-Trp-Glu-Ile-COOH (H-WHDPTPWWSWEI-OH) [Peptide F90] | derangeable in distribution and atrophic | no significant inhibition |  |  |  |  |  |  |  |  |  |
| VEGF [reference compound] |  |  |  |  |  |  |  |  |  |  | effect on chick chorioallantoic membrane blood vessels ([1]; in vivo): can promote the proliferation; also recorded: stimulated the blood vessels to proliferate significantly |
| H2N-Trp-His-Ser-Asp-Met-Glu-Trp-Trp-Tyr-Leu-Leu-Gly-COOH (H-WHSDMEWWYLLG-OH) [Peptide F56] | rupture of blood vessels and bleeding in addition to blood vessel atrophy; also recorded: derangeable in distribution and atrophic | no significant inhibition |  |  |  |  |  |  |  |  | cancer metastasis to lung (in words) [3, 8]: significantly inhibit cancer metastasis to lung; tumor growth on the injection sites (in words) [3, 8]: inhibition of tumor growth on the injection sites; Number of metastatic foci in each mouse, mouse 1 [3, 9]: 0; Number of metastatic foci in each mouse, mouse 2 [3, 9]: 0; Number of metastatic foci in each mouse, mouse 3 [3, 9]: 1; Number of metastatic foci in each mouse, mouse 4 [3, 9]: 2; Number of metastatic foci in each mouse, mouse 5 [3, 9]: 2; Mean number of metastatic foci ([3]; lung, 5 mice, after 8 weeks): 1.0; Total number of metastatic foci ([3]; lung, 5 mice, after 8 weeks): 5; Metastasis inhibition (%) ([3]; lung, versus solvent, after 8 weeks): 70.5% |
| B1 |  |  | no notable reaction | 0.081 | can bind | 0.477 | decreases along with the increase of the concentration of DHFR-F56 | can inhibit the growth | can bind | 0.529 | necrosis of tumor ([6]; FIG. 4): result in necrosis of tumor |
| B2 |  |  | no notable reaction | 0.074 | can bind | 0.384 |  | can inhibit the growth | can bind | 0.415 |  |
| B3 | no notable effect |  | no reaction | 0.074 | no reaction | 0.080 | no notable effect |  | no reaction | 0.088 |  |

Source: patent US7250395B2, “Antagonist peptides to VEGF receptor Flt-1” (Beijing Institute for Cancer Research, priority 2001, dated 2007)
